Test results published in article PMC10338343, “Relaxed targeting rules help PIWI proteins silence transposons”.

Molecular target: MIWI (Mus musculus, UniProt Q9JMB7 1-862)
Assay: double-filter binding; piRNA-1 guide; 3.5 mM Mg2+; RBNS: 25 mM HEPES-KOH pH 7.9, 110 mM KOAc, 3.5 mM MgOAc, 0.01% Triton X-100, 2 mM DTT, 10% glycerol, 2.5 mg/ml BSA, 0.5 mg/ml yeast tRNA, 100 nM RNA library, 33 C 2 h; double-filter: 30 mM HEPES-KOH pH 7.5, 120 mM KOAc, 3.5 mM MgOAc, 2 mM DTT, 0.01% Triton X-100, 0.1 nM target, 33 C 2 h
Conditions: protein: recombinant, tags: SNAP, 3xFlag, label: 5' 32P

MIWI, sequence (Q9JMB7 whole entry): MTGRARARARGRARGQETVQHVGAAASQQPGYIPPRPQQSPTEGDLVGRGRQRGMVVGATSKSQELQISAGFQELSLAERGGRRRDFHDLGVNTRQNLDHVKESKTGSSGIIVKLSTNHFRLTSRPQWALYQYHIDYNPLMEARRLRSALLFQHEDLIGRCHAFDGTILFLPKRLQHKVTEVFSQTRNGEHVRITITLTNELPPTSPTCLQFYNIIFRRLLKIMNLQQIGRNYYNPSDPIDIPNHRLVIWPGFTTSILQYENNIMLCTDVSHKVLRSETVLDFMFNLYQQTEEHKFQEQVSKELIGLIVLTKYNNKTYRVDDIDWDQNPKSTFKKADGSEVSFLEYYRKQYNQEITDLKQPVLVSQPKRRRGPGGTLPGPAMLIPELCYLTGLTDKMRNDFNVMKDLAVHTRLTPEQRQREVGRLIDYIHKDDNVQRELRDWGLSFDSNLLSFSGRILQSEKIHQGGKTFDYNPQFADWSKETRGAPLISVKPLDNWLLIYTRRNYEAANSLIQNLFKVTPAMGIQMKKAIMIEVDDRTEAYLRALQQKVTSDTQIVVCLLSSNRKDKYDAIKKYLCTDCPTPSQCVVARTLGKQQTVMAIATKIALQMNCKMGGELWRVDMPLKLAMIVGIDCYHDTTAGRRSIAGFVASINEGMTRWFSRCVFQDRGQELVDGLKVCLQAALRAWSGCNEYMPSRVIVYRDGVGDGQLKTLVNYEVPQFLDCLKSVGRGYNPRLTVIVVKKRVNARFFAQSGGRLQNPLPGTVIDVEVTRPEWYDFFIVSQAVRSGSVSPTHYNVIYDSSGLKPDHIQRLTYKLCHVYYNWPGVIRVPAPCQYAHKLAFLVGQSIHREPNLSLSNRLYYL

Binder | Kd (target pairs to guide g2-g10) [nM] | Kd (target pairs to guide g8-g16) [nM]
AAAAAAAAAAAAAAAAAAAAUACUACCUCA (ssRNA, 5' monophosphate) [piRNA-1 g2-g10 target] | 0.014 ± 0.009 | –
AAAAAAAAAAAAAAACAACCUACAAAAAAA (ssRNA, 5' monophosphate) [piRNA-1 g8-g16 target] | – | 0.08 ± 0.02
